# Data reported in IntAct's records for PubMed 13679922.
# B1: Protein maternal effect lethal 26 (Caenorhabditis elegans), Q94420 (parent)
# chain: MEPRIDGGVFIGGIGNSGNEMCSNGVPALGVSSQTEIKVEKVQHTWTVKNFSHCYQEYLENFVYLQRGDEQLTWSIKIYPKGNGENNKDFVFLCLNRVINNNVKAGKIGFKSQFKLRTAENKDIEMRIHPNPSHSDYVSYIKRDVLFPQIMPRDMIIVNVEIDVAVETITTTNEPIQFEPTNSEQQLIEDYQRLFSQELLCDFAINVNGKIIRAHKAVLAARSPVFNAMLTHQDTDEAKSSMMYINDMDYDVIYEMVYYIYCGRCNKDITDMATALLIAADKYRLEELKSHCEKYLVENINIENACSLLIIGDLYSAPKLRKRAVTYILARPKNVTGTPGWEDILKGHPNLITDIFSQIDRQSSTGATSSVSNLPGVPMDIPGITGNIVPPPSGL
# partner: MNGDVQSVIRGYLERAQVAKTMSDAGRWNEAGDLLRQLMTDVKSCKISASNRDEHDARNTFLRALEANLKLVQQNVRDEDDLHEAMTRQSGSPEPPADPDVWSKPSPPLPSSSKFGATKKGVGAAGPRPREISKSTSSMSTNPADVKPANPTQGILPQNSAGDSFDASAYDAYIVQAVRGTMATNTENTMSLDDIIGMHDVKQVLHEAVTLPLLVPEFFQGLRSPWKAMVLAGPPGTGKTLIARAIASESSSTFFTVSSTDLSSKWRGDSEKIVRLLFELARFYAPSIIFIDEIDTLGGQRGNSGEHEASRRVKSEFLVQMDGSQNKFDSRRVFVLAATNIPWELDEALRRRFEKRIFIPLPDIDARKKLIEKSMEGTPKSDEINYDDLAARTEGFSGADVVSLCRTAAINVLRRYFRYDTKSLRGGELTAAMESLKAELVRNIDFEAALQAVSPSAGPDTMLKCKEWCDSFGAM
# B2: Cullin-3 (Caenorhabditis elegans), Q17391 (parent)
# chain: MSGRSGNGGQQKMRIRPFMATIDEQYVTQTWELLKRAIQEIQRKNNSGLSFEELYRNAYTMVLHKHGERLYNGLKDVIQDHMASVRIRIIESMNSGSFLETVAESWADHTVAMVMIRDILMYMDRIYVAQNNHVLPVYNLGLDAYRTEILRQNGIGDRIRDALLELIKLDRKSNQINWHGIKNACDMLISLGIDSRTVYEDEFERPLLKETSDYYRDVCKNWLSGDNDACFYLAQVEIAMHDEASRASRYLDKMTEAKILQVMDDVMVAEHIQTIVYMQNGGVKFMLEHKKIEDLTRIFRIFKRIGDSVTVPGGGLKALLKAVSEYLNETGSNIVKNEDLLKNPVNFVNELLQLKDYFSSLLTTAFADDRDFKNRFQHDFETFLNSNRQSPEFVALYMDDMLRSGLKCVSDAEMDNKLDNVMILFRYLQEKDVFEKYFKQYLAKRLLLDKSCSDDVEKALLAKLKTECGCQFTQKLENMFRDKELWLTLATSFRDWREAQPTKMSIDISLRVLTAGVWPTVQCNPVVLPQELSVAYEMFTQYYTEKHTGRKLTINTLLGNADVKATFYPPPKASMSNEENGPGPSSSGESMKERKPEHKILQVNTHQMIILLQFNHHNRISCQQLMDELKIPERELKRNLQSLALGKASQRILVRKNKGKDAIDMSDEFAVNDNFQSKLTRVKVQMVTGKVESEPEIRETRQKVEDDRKLEVEAAIVRIMKARKKLNHNNLVAEVTQQLRHRFMPSPIIIKQRIETLIEREYLARDEHDHRAYQYIA
# partner: B1 chain
# B3: Meiotic spindle formation protein mei-1 (Caenorhabditis elegans), P34808-2 (parent)
# chain: B1 partner
# partner: B1 chain
# B4: Cullin-3 (Caenorhabditis elegans), Q17391 (parent)
# chain: B2 chain
# partner: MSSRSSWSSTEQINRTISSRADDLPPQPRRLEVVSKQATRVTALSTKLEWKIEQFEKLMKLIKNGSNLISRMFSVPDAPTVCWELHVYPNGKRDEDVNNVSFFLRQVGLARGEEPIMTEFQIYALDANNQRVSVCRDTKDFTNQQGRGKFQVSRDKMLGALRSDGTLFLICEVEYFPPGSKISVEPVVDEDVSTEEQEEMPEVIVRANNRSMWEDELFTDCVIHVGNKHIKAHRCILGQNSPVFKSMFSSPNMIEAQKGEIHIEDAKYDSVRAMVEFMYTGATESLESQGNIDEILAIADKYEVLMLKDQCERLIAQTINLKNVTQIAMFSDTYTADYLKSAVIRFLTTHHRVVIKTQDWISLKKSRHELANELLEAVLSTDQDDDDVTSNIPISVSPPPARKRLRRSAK
# Variants of: B1
# Conditions: with mei-1, P34808-2
row,Variant,effect of a mutation on the interaction
1,MEPRIDGGVFIGGIGNSGNEMCSNGVPALGVSSQTEIKVEKVQHTWTVKNFSHCYQEYLENFVYLQRGDEQLTWSIKIYPKGNGENNKDFVFLYLNRVINNNVKAGKIGFKSQFKLRTAENKDIEMRIHPNPSHSDYVSYIKRDVLFPQIMPRDMIIVNVEIDVAVETITTTNEPIQFEPTNSEQQLIEDYQRLFSQELLCDFAINVNGKIIRAHKAVLAARSPVFNAMLTHQDTDEAKSSMMYINDMDYDVIYEMVYYIYCGRCNKDITDMATALLIAADKYRLEELKSHCEKYLVENINIENACSLLIIGDLYSAPKLRKRAVTYILARPKNVTGTPGWEDILKGHPNLITDIFSQIDRQSSTGATSSVSNLPGVPMDIPGITGNIVPPPSGL [C94Y],decreasing interaction

# Variants of: B2
# Conditions: with mel26_caeel mel-26, Q94420
row,Variant,effect of a mutation on the interaction
1,L49A,decreasing interaction
2,E52A,decreasing interaction

# Variants of: B3
# Conditions: with mel26_caeel mel-26, Q94420
row,Variant,effect of a mutation on the interaction
1,MNGDVQSVIRGYLERAQVAKTMSDAGRWNEAGDLLRQLMTDVKSCKISASNRDEHDARNTFLRALEANLKLVQQNVRDEDDLHEAMTRQSGSPEPPADLDVWSKPSPPLPSSSKFGATKKGVGAAGPRPREISKSTSSMSTNPADVKPANPTQGILPQNSAGDSFDASAYDAYIVQAVRGTMATNTENTMSLDDIIGMHDVKQVLHEAVTLPLLVPEFFQGLRSPWKAMVLAGPPGTGKTLIARAIASESSSTFFTVSSTDLSSKWRGDSEKIVRLLFELARFYAPSIIFIDEIDTLGGQRGNSGEHEASRRVKSEFLVQMDGSQNKFDSRRVFVLAATNIPWELDEALRRRFEKRIFIPLPDIDARKKLIEKSMEGTPKSDEINYDDLAARTEGFSGADVVSLCRTAAINVLRRYFRYDTKSLRGGELTAAMESLKAELVRNIDFEAALQAVSPSAGPDTMLKCKEWCDSFGAM [P99L],decreasing interaction

# Variants of: B4
# Conditions: with bat42_caeel bath-42, P34371
row,Variant,effect of a mutation on the interaction
1,E52A,decreasing interaction
2,L49A,decreasing interaction
